Experimental data taken from the supplement of paper PMC7877785.
± gives the uncertainty stated by the source.

Assay: self-splicing fitness, log relative to wild type (ln ratio); higher = more splicing; Tetrahymena group I intron in knt gene, E. coli kanamycin selection, DiMSum; sequences stand for … in CUCUCU…GGAGGGAAAAGUUAUCAGGCAUGCACCUGGUAGCUAGUCUUUAAACCAAUAGAUUGCAUCGGUUUAAAAGGCAAGACCGUCAAAUUGCGGGAAAGGGGUCAACAGCCGUUCAGUACCAAGUCUCAGGGGAAACUUUGAGAUGGCCUUGCAAAGGGUAUGGUAAUAAGCUGACGGACAUGGUCCUAACCACGCAGCCAAGUCCUAAGUCAACAGAUCUUCUGUUGAUAUGGAUGCAGUUCACAGACUAAAUGUCGGUCGGGGAAGAUGUAUUCUUCUCAUAAGAUAUAGUCGGACCUCUCCUUAAUGGGAGCUAGCGGAUGAAGUGAUGCAACACUGGAGCCGCUGGGAACUAAUUUGUAUGCGAAAGUAUAUUGAUUAGUUUUGGAGUACUCGUGGUCG
Procedure, shortened: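 The eight P1ex-region nucleotides of an intron in the knt kanamycin-resistance gene on pET-22b(+) were all randomised and the library put into E. coli BL21(DE3). Six replicate transformations were grown overnight at 37°C or 30°C on LB agar with or without 25 μg/mL kanamycin, together with 100 μg/mL carbenicillin, 50 μM IPTG and 0.2% rhamnose. Colonies were pooled and amplicon-sequenced on an Illumina HiSeq 2500. Fitness from DiMSum is the error-weighted combination of wild-type-normalised replicate fold changes, kanamycin over none.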

Sequence | self-splicing fitness (ln) (30 °C) | self-splicing fitness (ln) (37 °C)
CACGAGCAAUAUUACGCUGA | -3.57 ± 0.37 | -2.02 ± 0.3
CAAAAGCAAUAUUACGGAGC | -2.95 ± 0.18 | -2.84 ± 0.25
GACUAGCAAUAUUACGAGUU | -4.75 ± 0.32 | -2.74 ± 0.3
GGUCAGCAAUAUUACGGAAG | -2.27 ± 0.2 | -1.58 ± 0.23
CGGGAGCAAUAUUACGCUAA | -2.62 ± 0.43 | 
UAGAAGCAAUAUUACGGUAA | -1.64 ± 0.091 | -0.669 ± 0.073
GUAUAGCAAUAUUACGAUGC | -2.65 ± 0.2 | -2.55 ± 0.24
UUCUAGCAAUAUUACGAGGA | -2.56 ± 0.25 | -1.4 ± 0.25
UAGGAGCAAUAUUACGCGUA | -1.12 ± 0.15 | -0.31 ± 0.12
AGGGAGCAAUAUUACGCAAG |  | -1.54 ± 0.3
GGAUAGCAAUAUUACGAAAG | -2.79 ± 0.48 | 
CACUAGCAAUAUUACGCACC | -2.29 ± 0.18 | -0.458 ± 0.19
UACAAGCAAUAUUACGCGCG | -0.759 ± 0.088 | 0.0647 ± 0.1
CCUCAGCAAUAUUACGAGCC | -0.962 ± 0.25 | -0.207 ± 0.41
GGUCAGCAAUAUUACGGCCA | -2.33 ± 0.19 | -0.589 ± 0.17
AGCCAGCAAUAUUACGAUUG | -4.59 ± 0.3 | -0.923 ± 0.19
GGUAAGCAAUAUUACGGGAA | -2.54 ± 0.39 | -2.06 ± 0.32
ACGUAGCAAUAUUACGAUAC | -2.62 ± 0.12 | -2.26 ± 0.19
CAAAAGCAAUAUUACGGUAC | -3.79 ± 0.23 | -1.24 ± 0.18
CAUUAGCAAUAUUACGGACG | -0.114 ± 0.086 | 0.364 ± 0.11
GAUCAGCAAUAUUACGUGAA | -0.745 ± 0.062 | -0.0764 ± 0.076
GACAAGCAAUAUUACGCGGU | -3.2 ± 0.24 | -2.48 ± 0.24
UAGUAGCAAUAUUACGUAUA | -1.69 ± 0.25 | -1.14 ± 0.27
AAGCAGCAAUAUUACGCAAU | -1.23 ± 0.085 | -1.22 ± 0.091
ACUUAGCAAUAUUACGAGAA | -2.06 ± 0.29 | -2.07 ± 0.23
CGCGAGCAAUAUUACGUUAU | -3.91 ± 0.21 | -3.49 ± 0.3
GCGAAGCAAUAUUACGAGGC |  | -1.65 ± 0.45

Sequence | self-splicing fitness (ln) (30 °C) | self-splicing fitness (ln) (37 °C)
CAACAGCAAUAUUACGCCGA | -2.35 ± 0.18 | -1.76 ± 0.17
GCGCAGCAAUAUUACGUAUG | -3.67 ± 0.23 | -1.8 ± 0.21
UCGCAGCAAUAUUACGCACU | -2.21 ± 0.18 | -0.563 ± 0.2
CGUGAGCAAUAUUACGAACG | -2.89 ± 0.38 | 
GGUCAGCAAUAUUACGCCGA |  | -2.65 ± 0.48
UCCUAGCAAUAUUACGGGGU | -4.13 ± 0.29 | -2.65 ± 0.2
CAGUAGCAAUAUUACGAGUG | -0.988 ± 0.052 | -0.603 ± 0.076
GGUGAGCAAUAUUACGCUCG |  | -1.37 ± 0.4
UCCAAGCAAUAUUACGAGCA | -0.834 ± 0.08 | -0.0464 ± 0.1
CACAAGCAAUAUUACGAGAA | -2.29 ± 0.31 | -2.41 ± 0.34
AGCGAGCAAUAUUACGUUUA |  | -1.96 ± 0.26
AGUCAGCAAUAUUACGCUCU | -1.01 ± 0.2 | -0.342 ± 0.21
UAUAAGCAAUAUUACGUCCA | -1.23 ± 0.12 | 0.113 ± 0.18
GCGAAGCAAUAUUACGCAUA | -1.92 ± 0.2 | -1.76 ± 0.16
GUGGAGCAAUAUUACGCGCA | -1.48 ± 0.43 | -1.47 ± 0.35
GAUGAGCAAUAUUACGAACA | -3.07 ± 0.47 | -1.54 ± 0.24
GCAAAGCAAUAUUACGACCC | -1.11 ± 0.073 | -0.0707 ± 0.1
GGUUAGCAAUAUUACGGACA | -0.743 ± 0.12 | 0.373 ± 0.15
ACUCAGCAAUAUUACGCUAU | -1.9 ± 0.061 | -0.569 ± 0.07
CGAGAGCAAUAUUACGGAGC | -2.84 ± 0.35 | 
UGCCAGCAAUAUUACGAACC | -3.55 ± 0.43 | -2.29 ± 0.5
GGUAAGCAAUAUUACGGACC | -0.973 ± 0.43 | 
CGUUAGCAAUAUUACGUUGC | -3.94 ± 0.34 | -1.95 ± 0.18
UCCUAGCAAUAUUACGCCUU | -2.98 ± 0.33 | -2.34 ± 0.35
AUAUAGCAAUAUUACGGUAC | -3.69 ± 0.39 | -2.59 ± 0.22
UUUAAGCAAUAUUACGGCCA | -0.688 ± 0.11 | -0.335 ± 0.15
AUCAAGCAAUAUUACGUACG | -2.54 ± 0.11 | -0.576 ± 0.11

Sequence | self-splicing fitness (ln) (30 °C) | self-splicing fitness (ln) (37 °C)
ACGAAGCAAUAUUACGACUA | -0.269 ± 0.083 | -0.184 ± 0.081
CUAUAGCAAUAUUACGUCCU | -3.39 ± 0.22 | -2.7 ± 0.29
UCGAAGCAAUAUUACGGGCU | -4.18 ± 0.39 | -2.67 ± 0.35
UGCAAGCAAUAUUACGAACG | -0.0871 ± 0.083 | 0.961 ± 0.11
ACCUAGCAAUAUUACGACAG | -2 ± 0.089 | -1.34 ± 0.12
ACUGAGCAAUAUUACGAUCG | -1.65 ± 0.15 | -1.99 ± 0.21
GGACAGCAAUAUUACGAGUA | -2.92 ± 0.15 | -1.79 ± 0.13
ACAGAGCAAUAUUACGUGGA | -3.67 ± 0.31 | -2.88 ± 0.31
GGGAAGCAAUAUUACGUGCG | -1.4 ± 0.11 | -0.371 ± 0.13
AUCAAGCAAUAUUACGAGAA | -1.21 ± 0.49 | -2.28 ± 0.28
CAAUAGCAAUAUUACGGUUC | -3.3 ± 0.48 | 
CGUCAGCAAUAUUACGAACA | -0.807 ± 0.078 | 0.843 ± 0.12
GCUGAGCAAUAUUACGCGAC | -3.36 ± 0.32 | -1 ± 0.3
GAAGAGCAAUAUUACGCUAC | -3.19 ± 0.25 | 
UACGAGCAAUAUUACGGCAG | -2.22 ± 0.23 | -1.65 ± 0.21
UUCGAGCAAUAUUACGGUCC | -1.91 ± 0.39 | -1.56 ± 0.43
UGCUAGCAAUAUUACGUUCU | -0.686 ± 0.092 | -0.861 ± 0.12
UUGAAGCAAUAUUACGAGAU | -3.15 ± 0.18 | -2.87 ± 0.23
AUGGAGCAAUAUUACGCCCA | -1.95 ± 0.27 | -1.03 ± 0.26
UGGCAGCAAUAUUACGCGAA | -0.273 ± 0.088 | -0.139 ± 0.1
GAUCAGCAAUAUUACGGACG | -0.737 ± 0.13 | -0.212 ± 0.18
UAGAAGCAAUAUUACGCUCU | -2.53 ± 0.2 | -2.75 ± 0.32
UAGUAGCAAUAUUACGUCUC | -3.51 ± 0.45 | -1.59 ± 0.2
GCCUAGCAAUAUUACGCGAU | -3.87 ± 0.24 | -1.68 ± 0.16
AGGUAGCAAUAUUACGACGU | 0.156 ± 0.014 | 0.233 ± 0.033
UCAUAGCAAUAUUACGCCCA | -2 ± 0.21 | -0.939 ± 0.18
